Reference: the Immune Epitope Database (IEDB)
pIC50, pKd: −log10 of the molar value.

Experiments:
HLA-B*07:02 [1] = assay: IEDB peptide-MHC binding, purified MHC/competitive/fluorescence; ≥ and ≤ were set here for values at or beyond the usual limits of such assays
HLA-B*08:01 [2] = assay: as above
HLA-A*24:02 = assay: as above
HLA-A*31:01 = assay: IEDB peptide-MHC binding, purified MHC/direct/fluorescence; filed as Kd, often an IC50 or EC50 that approximates it; ≥ and ≤ were set here for values at or beyond the usual limits of such assays
HLA-A*01:01 = assay: as above
HLA-B*58:01 = assay: as above
HLA-B*07:02 [3] = assay: as above
HLA-B*08:03 = assay: as above
HLA-B*27:05 = assay: as above
HLA-B*15:17 [4] = assay: as above
HLA-B*40:01 = assay: as above
HLA-A*03:01 = assay: as above
HLA-A*26:03 = assay: as above
HLA-A*26:02 [5] = assay: as above
HLA-B*08:01 [6] = assay: as above
HLA-B*48:01 = assay: as above
HLA-A*02:01 [7] = assay: as above
HLA-B*57:01 = assay: as above
HLA-B*15:01 [8] = assay: as above
HLA-A*68:02 = assay: as above
HLA-A*69:01 = assay: as above
HLA-B*46:01 = assay: as above
HLA-A*11:01 [9] = assay: IEDB peptide-MHC binding, purified MHC/competitive/fluorescence; ≥ and ≤ were set here for values at or beyond the usual limits of such assays; conditions: source organism: Zaire ebolavirus
HLA-B*15:17 [10] = assay: IEDB peptide-MHC binding, purified MHC/competitive/fluorescence; filed as Kd, often an IC50 or EC50 that approximates it; ≥ and ≤ were set here for values at or beyond the usual limits of such assays; conditions: source organism: Vaccinia virus WR
HLA-A*11:01 [11] = assay: IEDB peptide-MHC binding, purified MHC/direct/fluorescence; filed as Kd, often an IC50 or EC50 that approximates it; ≥ and ≤ were set here for values at or beyond the usual limits of such assays
HLA-B*18:01 [12] = assay: as above
HLA-B*18:01 [13] = assay: IEDB peptide-MHC binding, purified MHC/competitive/fluorescence; filed as Kd, often an IC50 or EC50 that approximates it; ≥ and ≤ were set here for values at or beyond the usual limits of such assays; conditions: source organism: Vibrio vulnificus YJ016
HLA-A*02:06 = assay: as above
HLA-A*23:01 = assay: IEDB peptide-MHC binding, purified MHC/direct/fluorescence; filed as Kd, often an IC50 or EC50 that approximates it; ≥ and ≤ were set here for values at or beyond the usual limits of such assays; conditions: source organism: Vibrio vulnificus YJ016
HLA-A*24:03 = assay: as above
HLA-B*15:09 = assay: as above; conditions: source organism: Vibrio vulnificus CMCP6
HLA-A*26:01 = assay: as above
HLA-A*02:01 [14] = assay: IEDB peptide-MHC binding, purified MHC/competitive/fluorescence; ≥ and ≤ were set here for values at or beyond the usual limits of such assays; conditions: source organism: Zaire ebolavirus
HLA-B*15:01 [15] = assay: as above; conditions: source organism: Zaire ebolavirus
HLA-B*35:01 = assay: IEDB peptide-MHC binding, purified MHC/direct/fluorescence; filed as Kd, often an IC50 or EC50 that approximates it; ≥ and ≤ were set here for values at or beyond the usual limits of such assays; conditions: source organism: Corynebacterium glutamicum
HLA-A*30:01 = assay: as above; conditions: source organism: Corynebacterium glutamicum
HLA-A*26:02 [16] = assay: IEDB peptide-MHC binding, purified MHC/competitive/fluorescence; filed as Kd, often an IC50 or EC50 that approximates it; ≥ and ≤ were set here for values at or beyond the usual limits of such assays; conditions: source organism: Salmonella enterica subsp. enterica serovar Enteritidis
HLA-A*02:19 = assay: IEDB peptide-MHC binding, purified MHC/direct/fluorescence; filed as Kd, often an IC50 or EC50 that approximates it; ≥ and ≤ were set here for values at or beyond the usual limits of such assays; conditions: source organism: Salmonella enterica subsp. enterica serovar Typhimurium str. LT2
HLA-A*02:11 = assay: as above; conditions: source organism: Salmonella enterica subsp. enterica serovar Typhimurium str. LT2
[17] = source organism: Vibrio cholerae
[18] = source organism: Vibrio vulnificus CMCP6
[19] = source organism: Zaire ebolavirus
[20] = source organism: Camelpox virus M-96
[21] = source organism: Vibrio vulnificus YJ016
[22] = source organism: Corynebacterium glutamicum
[23] = source organism: Salmonella enterica

Sequence: TPKAQREIF
- pIC50 (HLA-B*07:02 [1]; source organism: Variola virus): 4.79
- pIC50 (HLA-B*08:01 [2]; source organism: Variola virus): ≤ 3.85
- pIC50 (HLA-A*24:02; source organism: Variola virus): 4.85

Sequence: KGHLPLLDK
- pKd (HLA-A*31:01; [17]): 5.40
- pKd (HLA-A*01:01; [17]): ≤ 4.70
- pKd (HLA-B*58:01; [17]): ≤ 4.70
- pKd (HLA-B*07:02 [3]; [17]): ≤ 4.70
- pKd (HLA-B*08:03; [18]): ≤ 4.70
- pKd (HLA-B*27:05; [17]): ≤ 4.70
- pKd (HLA-B*15:17 [4]; [17]): ≤ 4.70
- pKd (HLA-B*40:01; [17]): ≤ 4.70
- pKd (HLA-A*03:01; [17]): 7.26
- pKd (HLA-A*26:03; [18]): ≤ 4.70
- pKd (HLA-A*26:02 [5]; [18]): ≤ 4.70
- pKd (HLA-B*08:01 [6]; [18]): ≤ 4.70
- pKd (HLA-B*48:01; [17]): ≤ 4.70
- pKd (HLA-A*02:01 [7]; [17]): ≤ 4.70
- pKd (HLA-B*57:01; [17]): ≤ 4.70
- pKd (HLA-B*15:01 [8]; [17]): ≤ 4.70
- pKd (HLA-A*68:02; [17]): ≤ 4.70
- pKd (HLA-A*69:01; [17]): ≤ 4.70
- pKd (HLA-B*46:01; [17]): ≤ 4.70

Sequence: HRTIHHASA
- pIC50 (HLA-B*08:01 [2]; [19]): ≤ 3.86
- pIC50 (HLA-A*11:01 [9]): ≤ 3.81

Sequence: ATNDGLIKK
- pKd (HLA-B*15:17 [10]): ≤ 4.70
- pKd (HLA-A*31:01; [20]): 6.92
- pKd (HLA-A*01:01; [20]): ≤ 4.70
- pKd (HLA-B*58:01; [20]): 5.05
- pKd (HLA-B*07:02 [3]; [20]): ≤ 4.70
- pKd (HLA-B*08:03; source organism: Variola virus): ≤ 4.70
- pKd (HLA-B*27:05; [20]): ≤ 4.70
- pKd (HLA-B*40:01; [20]): ≤ 4.70
- pKd (HLA-A*03:01; [20]): 5.84
- pKd (HLA-A*26:03; source organism: Variola virus): ≤ 4.70
- pKd (HLA-A*26:02 [5]; source organism: Variola virus): ≤ 4.70
- pKd (HLA-B*08:01 [6]; source organism: Variola virus): ≤ 4.70
- pKd (HLA-B*48:01; [20]): ≤ 4.70
- pKd (HLA-A*11:01 [11]; [20]): 8.00
- pKd (HLA-B*18:01 [12]; [20]): ≤ 4.70
- pKd (HLA-A*02:01 [7]; [20]): ≤ 4.70
- pKd (HLA-B*57:01; [20]): ≤ 4.70
- pKd (HLA-B*15:01 [8]; [20]): ≤ 4.70
- pKd (HLA-A*68:02; [20]): ≤ 4.70
- pKd (HLA-A*69:01; [20]): ≤ 4.70
- pKd (HLA-B*46:01; [20]): ≤ 4.70

Sequence: GWPDNYCEW
- pKd (HLA-B*18:01 [13]): 5.64
- pKd (HLA-A*02:06; [21]): 5.66
- pKd (HLA-A*31:01; [21]): ≤ 4.70
- pKd (HLA-A*01:01; [21]): ≤ 4.70
- pKd (HLA-B*58:01; [21]): ≤ 4.70
- pKd (HLA-B*07:02 [3]; [21]): ≤ 4.70
- pKd (HLA-B*08:03; [18]): ≤ 4.70
- pKd (HLA-A*23:01): 6.65
- pKd (HLA-B*15:17 [4]; [21]): ≤ 4.70
- pKd (HLA-A*24:03; [21]): 8.17
- pKd (HLA-B*08:01 [6]; [18]): ≤ 4.70
- pKd (HLA-B*15:09): ≤ 4.70
- pKd (HLA-A*11:01 [11]; [21]): ≤ 4.70
- pKd (HLA-A*02:01 [7]; [21]): ≤ 4.70
- pKd (HLA-B*57:01; [21]): ≤ 4.70
- pKd (HLA-B*15:01 [8]; [21]): ≤ 4.70
- pKd (HLA-A*68:02; [21]): ≤ 4.70
- pKd (HLA-A*69:01; [21]): ≤ 4.70
- pKd (HLA-A*26:01; [18]): ≤ 4.70

Sequence: TIHHASAPL
- pIC50 (HLA-B*07:02 [1]; [19]): 4.83
- pIC50 (HLA-B*08:01 [2]; [19]): ≤ 3.90
- pIC50 (HLA-A*11:01 [9]): ≤ 4.07
- pIC50 (HLA-A*02:01 [14]): 5.25
- pIC50 (HLA-B*15:01 [15]): 4.84
- pIC50 (HLA-A*24:02; [19]): 4.33

Sequence: NIKHKERIP
- pIC50 (HLA-B*08:01 [2]; source organism: Vaccinia virus Copenhagen): ≤ 3.53

Sequence: WPALSSIAA
- pKd (HLA-A*31:01; [22]): ≤ 4.70
- pKd (HLA-B*35:01): 8.77
- pKd (HLA-A*01:01; [22]): ≤ 4.70
- pKd (HLA-B*58:01; [22]): ≤ 4.70
- pKd (HLA-B*07:02 [3]; [22]): 8.06
- pKd (HLA-B*27:05; [22]): ≤ 4.70
- pKd (HLA-A*24:03; [22]): ≤ 4.70
- pKd (HLA-B*40:01; [22]): ≤ 4.70
- pKd (HLA-A*03:01; [22]): ≤ 4.70
- pKd (HLA-B*08:01 [6]; [22]): 5.89
- pKd (HLA-A*11:01 [11]; [22]): ≤ 4.70
- pKd (HLA-A*02:01 [7]; [22]): ≤ 4.70
- pKd (HLA-B*15:01 [8]; [22]): ≤ 5.30
- pKd (HLA-A*26:01; [22]): ≤ 4.70
- pKd (HLA-A*30:01): 5.12

Sequence: MGKTITDVK
- pKd (HLA-A*26:02 [16]): 5.56
- pKd (HLA-A*02:06; source organism: Salmonella enterica subsp. enterica serovar Enteritidis): 6.54
- pKd (HLA-A*31:01; [23]): 5.80
- pKd (HLA-A*01:01; [23]): ≤ 4.70
- pKd (HLA-B*58:01; [23]): ≤ 4.70
- pKd (HLA-B*07:02 [3]; [23]): ≤ 4.70
- pKd (HLA-B*08:03; source organism: Salmonella enterica subsp. enterica serovar Typhimurium str. LT2): ≤ 4.70
- pKd (HLA-B*27:05; [23]): ≤ 4.70
- pKd (HLA-B*15:17 [4]; [23]): ≤ 4.70
- pKd (HLA-B*40:01; [23]): ≤ 4.70
- pKd (HLA-A*03:01; [23]): ≤ 4.70
- pKd (HLA-B*48:01; [23]): ≤ 4.70
- pKd (HLA-A*02:19): 5.22
- pKd (HLA-A*11:01 [11]; [23]): 6.38
- pKd (HLA-B*18:01 [12]; [23]): ≤ 4.70
- pKd (HLA-A*02:11): ≤ 4.70
- pKd (HLA-A*02:01 [7]; [23]): ≤ 4.70
- pKd (HLA-B*57:01; [23]): ≤ 4.70
- pKd (HLA-B*15:01 [8]; [23]): ≤ 4.70
- pKd (HLA-A*68:02; [23]): ≤ 4.70
- pKd (HLA-B*46:01; [23]): ≤ 4.70
